# Patent US20220175944A1 (MAGENTA THERAPEUTICS, published 2022)
# B1: CK6 S239C-PBD (antibody, V domains shown)
# VH: QVQLVQSGAAVKKPGESLKISCKGSGYRFTSYWIGWVRQMPGKGLEWMGIIYPGDSDTRYSPSFQGQVTISAGKSISTAYLQWSSLKASDTAMYYCARHGRGYNGYEGAFDIWGQGTMVTVSS
# VL: AIQLTQSPSSLSASVGDRVTITCRASQGISSALAWYQQKPGKAPKLLIYDASSLESGVPSRFSGSGSGTDFTLTISSLQPEDFATYYCQQFNSYPLTFGGGTKVEIK
# modifications: PBD (DNA cross linker) conjugated to the antibody, Fc modification S239C, DAR 1.7
# B2: CK6-SET0207 (Fc modification D265C H435A) (antibody, V domains shown)
# VH: B1 VH
# VL: B1 VL
# modifications: SET0207 payload ('Non-cleavable natural') conjugated to the antibody, Fc modification D265C H435A, DAR 2.0
# B3: CK6 S239C-DM (duocarmycin) (antibody, V domains shown)
# VH: B1 VH
# VL: B1 VL
# modifications: duocarmycin (DM) conjugated to the antibody, Fc modification S239C, DAR 1.65
# B4: CK6 S239C-PNU (antibody, V domains shown)
# VH: B1 VH
# VL: B1 VL
# modifications: PNU (DNA topoisomerase I/II inhibitor) conjugated to the antibody, Fc modification S239C, DAR 1.4
# B5: CK6 S239C-D4 (calicheamicin) (antibody, V domains shown)
# VH: B1 VH
# VL: B1 VL
# modifications: calicheamicin (D4) conjugated to the antibody, Fc modification S239C, DAR 1.72
# Molecular target: T1, Human CD117 on Kasumi-1 cells or primary human CD34+ bone marrow cells (human, UniProt P10721 26-976)
# Assay: cell-based or functional assay
# T1 sequence (P10721 26-976 limits assumed): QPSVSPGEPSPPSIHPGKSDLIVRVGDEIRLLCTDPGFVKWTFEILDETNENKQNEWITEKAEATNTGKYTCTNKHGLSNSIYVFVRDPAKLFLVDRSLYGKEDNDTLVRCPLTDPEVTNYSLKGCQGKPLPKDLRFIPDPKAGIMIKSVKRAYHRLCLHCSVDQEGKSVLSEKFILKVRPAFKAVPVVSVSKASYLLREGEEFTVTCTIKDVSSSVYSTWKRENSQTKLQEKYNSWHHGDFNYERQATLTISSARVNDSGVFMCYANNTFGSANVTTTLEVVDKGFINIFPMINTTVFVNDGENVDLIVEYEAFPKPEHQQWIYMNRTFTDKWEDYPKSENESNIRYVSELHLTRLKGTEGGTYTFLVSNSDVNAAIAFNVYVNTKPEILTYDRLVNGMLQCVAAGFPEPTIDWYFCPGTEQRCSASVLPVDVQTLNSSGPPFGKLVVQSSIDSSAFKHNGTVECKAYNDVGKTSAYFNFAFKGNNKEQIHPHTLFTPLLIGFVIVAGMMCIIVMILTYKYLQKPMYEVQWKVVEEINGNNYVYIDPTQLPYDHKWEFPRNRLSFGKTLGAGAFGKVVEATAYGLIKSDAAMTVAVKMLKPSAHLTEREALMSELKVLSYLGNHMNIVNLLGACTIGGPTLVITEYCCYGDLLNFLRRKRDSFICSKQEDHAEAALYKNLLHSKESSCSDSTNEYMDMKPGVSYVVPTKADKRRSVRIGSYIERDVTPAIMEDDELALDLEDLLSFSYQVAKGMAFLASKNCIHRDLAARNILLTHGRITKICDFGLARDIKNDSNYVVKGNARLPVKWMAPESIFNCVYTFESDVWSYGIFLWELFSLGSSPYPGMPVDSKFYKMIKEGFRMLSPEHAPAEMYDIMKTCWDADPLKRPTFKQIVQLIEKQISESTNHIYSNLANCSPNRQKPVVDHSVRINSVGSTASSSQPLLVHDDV
row,Binder,"% Efficacy, in vitro Kasumi cell killing assay [%]"
1,B1,60.7
2,B2,0
3,B3,0
4,B4,85.7
5,B5,0

# Molecular target: T1, Human CD117 on Kasumi-1 cells or …
# Assay: cell-based or functional assay
# Remark: another data set of the same source
row,Binder,"% Efficacy, in vitro hCD34 cell killing assay [%]"
1,B1,97.3
2,B2,9.18
3,B3,66.2
4,B4,74.4
5,B5,52.3

# Molecular target: Baboon CD117 on baboon CD34+ bone marrow cells (baboon)
# Assay: cell-based or functional assay
row,Binder,"IC50, killing of baboon CD34+ bone marrow cells (live cell counts by flow cytometry) [nM]"
1,B1,0.00066
2,B5,14.6
